Data reported in the supplement of paper PMC6755084.

tested on: F1*sub RNA substrate (template-directed ligation); experiment: fraction ligated after 30 min (ligated reads / total reads); higher = more ligase activity; sequences stand for … in GAGACCGCAACTGAAAAGTTGT…AGTTCTGCACGTAGAAGCAAAAGGC; conditions: 42 °C
Outline: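 Templates from an oligo pool were PCR-amplified, transcribed with T7 and gel-purified to give the ribozyme variants. Ligated and unligated products were separated on gel, reverse transcribed using barcoded primers, and read on a MiSeq. A quality filter of ≥20 was applied to core bases. Fraction ligated was taken as ligated reads as a share of all reads per variant.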

In order of rising fraction ligated:
1. TATACTTGTCGTAGACACTTTGGATGGGTTA [3d881]  0.00736
2. TTCACTTTCGTAAGACACTTTGGTGGGTTGA [3d366]  0.00787
3. TACACTTTCGTAAGACACTTTGGATGGGTTA [3d599]  0.00822
4. ATCACTTGTCGTAAGACACTTTGTGGGTTGA [3d261]  0.0128
5. TATCACTGTCGTAAGACACTTTATGGGTTGA [3d1447]  0.0197
6. TATCACTTGTCGTAAGACACTTGGGGGTTGA [3d2244]  0.0227
7. TATACTGTCGTAAGACACTTTGGTGGGTTGA [3d791]  0.0244
8. TATACTTGTCGTAAGACCTTTGGAGGGTTGA [3d914]  0.0249
9. TTCACTTTCGTAAGACACTTTGGAGGGTTGA [3d367]  0.0281
10. TATCACTTGTGTAAGACACTTGGATGGTTGA [3d1790]  0.0286
11. ATCACTTGTCGTAAGCACTTTGGTGGGTTGA [3d226]  0.0296
12. TATCACTTGTCGTAAACACTTTGTGGGTTGA [3d2089]  0.0322
13. TACACTTGCGTAAGACACTTTGATGGGTTGA [3d611]  0.0347
14. TATCATTGTGTAAGACACTTTGGATGGTTGA [3d1184]  0.0387
15. TATCACTTGTGTAAGACACTTTGGAGGGTTA [3d1804]  0.0394
16. TATACTTGTCGTAAGACACTTTGGATGGTTA [3d945]  0.0396
17. TTCACTTGTCGAAACACTTTGGATGGGTTGA [3d417]  0.0407
18. TATCACTTTCGAAGACACTTTGGTGGGTTGA [3d1501]  0.0423
19. TATCACTTGTCGTAAGAACTTTGGTGGGTTA [3d2174]  0.0479
20. TATACTTGTCGTAAGACACTTTATGGGTTGA [3d932]  0.0481
21. TATCACTTTCGTAAGCACTTTGGTGGGTTGA [3d1534]  0.0496
22. TATCATTGTCGTAAGAACTTTGGATGGTTGA [3d1252]  0.0537
23. TATCACTTGTCGTAAACACTTTGGTGGGTTA [3d2096]  0.057
24. TTCACTTGTCGTAAGCACTTTGGATGGGTTA [3d460]  0.0582
25. ACACTTGTCGTAAGACACTTTGGTGGGTTGA [3d41]  0.0656
26. TATCACTTGTCTAAGACACTTTGGAGGGTTG [3d1897]  0.0676
27. TTCATTGTCGTAAACACTTTGGATGGGTTGA [3d324]  0.068
28. TATCATTGTCGTAAGCACTTTGGTGGGTTGA [3d1242]  0.0707
29. TATCACTTGTCGTAAGACCTTGGTGGGTTGA [3d2185]  0.0725
30. TTCATTGTCGTAAGACACTTTGGATGGGTTA [3d334]  0.0829
31. TATCACTGTCGTAAACACTTTGGTGGGTTGA [3d1403]  0.086
32. TATCCTTGTCGTAAGACACTTTGGTGGGTTG [3d1113]  0.0948
33. TACACTTGCGTAGACACTTTGGATGGGTTGA [3d604]  0.0967
34. TATCACTTGTCGTAAGCACTTTGGTGGGTTGA [2d249]  0.14
35. TATACTTTCGTAAGACACTTTGGATGGGTTG [3d811]  0.145
36. TTCACTTTCGAAGACACTTTGGATGGGTTGA [3d357]  0.145
37. TATCACTTGTCGTAGACATTTGGATGGTTGA [3d2032]  0.147
38. TATCACTTGTCGAAGCACTTTGGATGGTTGA [3d1932]  0.159
39. ATCCTTGTCGTAAGACACTTTGGTGGGTTGA [3d81]  0.169
40. TTCATTGTCGTAAGCACTTTGGATGGGTTGA [3d325]  0.176
41. TATCACTTGCGTAAGCACTTTGGAGGGTTGA [3d1655]  0.178
42. ATCACTTGTCGTAAGCACTTTGGATGGTTGA [3d228]  0.195
43. TATCACTTGTCTAGACACTTTGGTGGGTTGA [3d1831]  0.195
44. TATCACTTGCGTAAGACACTTTGGATGGTTA [3d1701]  0.227
45. TACATTGTCGTAAGACACTTTGATGGGTTGA [3d560]  0.232
46. ACACTGTCGTAAGACACTTTGGATGGGTTGA [3d27]  0.238
47. TATATTGTCTAAGACACTTTGGATGGGTTGA [3d762]  0.27
48. TATATTGTCGTAAGACACTTTGATGGGTTGA [3d771]  0.288
49. TACACTGTCGTAAGACACTTTGGAGGGTTGA [3d581]  0.292
50. TATCACTTGCGTAAGACACTTTGGATGGTTGA [2d176]  0.324
51. TTCACTTCGTAAGACACTTTGGATGGGTTGA [3d337]  0.344
52. TATCACTTGTGTAAGACACTTGGATGGGTTA [3d1791]  0.349
53. TTCACTTGCGTAAACACTTTGGATGGGTTGA [3d375]  0.356
54. TATCACTTTCGAAGACACTTTGGATGGGTTA [3d1504]  0.382
55. TATCACTTGTCGTAGACACTTTGGATGGTTA [3d2055]  0.406
56. TATCCTTGTGTAAGACACTTTGGATGGGTTA [3d1013]  0.406
57. TATCATTGTCGTAAGACATTTGGTGGGTTGA [3d1264]  0.421
58. TACACTTGCGTAAGACATTTGGATGGGTTGA [3d609]  0.422
59. TTCACTTGTCTAAGACACTTGGATGGGTTGA [3d409]  0.435
60. ATACTTGTCGTAAGAACTTTGGATGGGTTGA [3d57]  0.448
61. ATCATTGTCGTAAGACACTTTGGATGGTTGA [3d102]  0.482
62. TATACTTGCGTAAGACACTTGGATGGGTTGA [3d821]  0.485
63. ATCACTTGTCGTAAACACTTTGGATGGTTGA [3d218]  0.557
64. TATCACTTGCGTAAGAACTTTGGATGGGTTA [3d1665]  0.604
65. TATCACTTGTCGTAAACACTTTGGATGGGTT [3d2103]  0.628
66. TACACTTGTCGTAAGACACTTTGGATGGTTGA [2d66]  0.644
67. ATCACTTGTCTAAGACACTTTGGATGGGTTA [3d183]  0.656
68. TACCTTGTCGTAAGCACTTTGGATGGGTTGA [3d536]  0.668
69. TTCACTTGTCGTAAGACCTTGGATGGGTTGA [3d470]  0.678
70. TTCACTTGTGTAAGAACTTTGGATGGGTTGA [3d392]  0.694
71. TATACTGTCGAAGACACTTTGGATGGGTTGA [3d782]  0.71
72. TATACTTGTCGTAAGAACTTGGATGGGTTGA [3d904]  0.717
73. TATCACTTTCGTAAGACACTTTGATGGGTTG [3d1573]  0.731
74. TTCACTTGTCGTAGCACTTTGGATGGGTTGA [3d431]  0.735
75. TATCCTTGTGTAAGACACTTTGGATGGGTTG [3d1014]  0.745
76. ATCACTTGTCGTAAGACACTTTGGATGGGTTA [2d23]  0.747
77. TATCACTTGTCTAGCACTTTGGATGGGTTGA [3d1825]  0.754
78. TATACTTGTCGTAAGACACTTGGATGGGTTG [3d931]  0.756
79. TATCACTTGTCGTAGACACTTGGATGGGTTA [3d2040]  0.757
80. TATCACTTGTGTAAGCCTTTGGATGGGTTGA [3d1755]  0.76
81. TATCTTGTCGTAAACACTTTGGATGGGTTGA [3d746]  0.76
82. ATCCTTGCGTAAGACACTTTGGATGGGTTGA [3d69]  0.768
83. TATCATTGTCGAAGACCTTTGGATGGGTTGA [3d1205]  0.768
84. TATCATTTCGTAAGACACTTTGGATGGGTTG [3d1155]  0.769
85. TATCATTTCGTAAGACCTTTGGATGGGTTGA [3d1147]  0.775
86. TATCACTTTCGTAAACACTTTGGATGGGTTG [3d1528]  0.776
87. TATACTTTCGTAAGAACTTTGGATGGGTTGA [3d802]  0.778
88. TATCACTTGTCGTAAGACACTGGATGGGTTG [3d2237]  0.778
89. TATCACTTGTCGTAGACACTGGATGGGTTGA [3d2035]  0.778
90. TATCACGTCGAAGACACTTTGGATGGGTTGA [3d1297]  0.781
91. TTCCTTGTGTAAGACACTTTGGATGGGTTGA [3d301]  0.782
92. TCACTTGTCGTAAGACATTTGGATGGGTTGA [3d16]  0.782
93. TATCACTTCGTAGACACTTTGGATGGGTTGA [3d1314]  0.783
94. TATCACTTGTCGTGCACTTTGGATGGGTTGA [3d1982]  0.783
95. TATCATTGTCGTAAGACACTTTGGATGGGTTG [2d127]  0.784
96. TATCACTTGTCTAAGACTTTGGATGGGTTGA [3d1846]  0.786
97. TATCCTTGTCGTAAGACACTTTGGATGGGTTGA [1d5]  0.789
98. TATCACTTGTCGAAGACCTTTGGATGGGTTG [3d1949]  0.79
99. TATCATGTCGTAAGACACTTTGGATGGGTTGA [2d109]  0.792
100. TATCACTTGTGTAAGACACTGGATGGGTTGA [3d1786]  0.792
101. TATCACTGCGTAAGACACTTGGATGGGTTGA [3d1336]  0.793
102. TATCCTTGGTAAGACACTTTGGATGGGTTGA [3d984]  0.796
103. TATCCTTGTCTAAGACACTTTGGATGGGTTGA [2d94]  0.798
104. TATCACGTCGTAAGACATTTGGATGGGTTGA [3d1303]  0.807
105. TATCACTTGTCGAAGCATTTGGATGGGTTGA [3d1927]  0.811
106. TATCACTTGTCGTAGACATTTGGATGGGTTG [3d2034]  0.815
107. TATCACTTGTCTAAGACATTTGGATGGGTTG [3d1877]  0.824
108. TATCACTTGTCGTAAACACTTTGGATGGGTTG [2d243]  0.827
109. TATCACTTTGTAAGACATTTGGATGGGTTGA [3d1471]  0.837
110. TATCACTTTGTAAGACACTTTGGATGGGTTGA [2d147]  0.838
111. TATCACTGTCGTAGACACTTTGGATGGGTTGA [2d134]  0.861
112. TATCACTGTCGTAGAACTTTGGATGGGTTGA [3d1388]  0.886
